# Where no end group is shown, it is not given here. The star is where a group is joined. C6spacer = spacer between biotin and the peptide; Biotin = O=C1N[C@H]2[C@H](CS[C@H]2CCCCC(=O)*)N1
# T1: SIK FGNFYKSGEPLSTWCGSPPYRRR
# T1 sequence: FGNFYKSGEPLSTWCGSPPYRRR
# T2: BRSK2 MASLQVGDSLLETSCGSPHYRRR
# T2 sequence: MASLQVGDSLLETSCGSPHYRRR
# T3: MARK3 FSNEFTVGGKLDTFCGSPPYRRR
# T3 sequence: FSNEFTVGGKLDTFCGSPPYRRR
# T4: MELK AKPKGNKDYHLQTCCGSLAYRRR
# T4 sequence: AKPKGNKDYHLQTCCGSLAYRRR
# T5: LKBtide peptide (NUAK2 T-loop peptide)
# T5 sequence: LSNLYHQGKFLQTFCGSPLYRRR
# T6: bacterially expressed MO25α (human, UniProt Q9Y376 1-341)
# T6 construct: Expressed as GST fusion from pGEX-6T in E. coli BL21; GST tag cleaved off; also called MO25α protein (E. coli)
# T6 sequence: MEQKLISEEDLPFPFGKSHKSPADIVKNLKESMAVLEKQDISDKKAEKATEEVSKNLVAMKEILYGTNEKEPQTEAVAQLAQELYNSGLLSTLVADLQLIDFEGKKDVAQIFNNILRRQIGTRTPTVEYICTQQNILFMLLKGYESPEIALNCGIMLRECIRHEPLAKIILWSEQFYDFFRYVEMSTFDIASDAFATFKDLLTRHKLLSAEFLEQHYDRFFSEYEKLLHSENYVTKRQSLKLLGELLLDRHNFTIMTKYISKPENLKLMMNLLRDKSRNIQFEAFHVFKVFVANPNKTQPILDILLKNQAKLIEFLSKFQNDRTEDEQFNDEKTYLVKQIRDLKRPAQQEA
# B1: LKB1:STRAD:MO25 complex (Mus musculus) (protein)
# chain: MDVADPEPLGLFSEGELMSVGMDTFIHRIDSTEVIYQPRRKRAKLIGKYLMGDLLGEGSYGKVKEVLDSETLCRRAVKILKKKKLRRIPNGEANVKKEIQLLRRLRHRNVIQLVDVLYNEEKQKMYMVMEYCVCGMQEMLDSVPEKRFPVCQAHGYFRQLIDGLEYLHSQGIVHKDIKPGNLLLTTNGTLKISDLGVAEALHPFAVDDTCRTSQGSPAFQPPEIANGLDTFSGFKVDIWSAGVTLYNITTGLYPFEGDNIYKLFENIGRGDFTIPCDCGPPLSDLLRGMLEYEPAKRFSIRQIRQHSWFRKKHPLAEALVPIPPSPDTKDRWRSMTVVPYLEDLHGRAEEEEEEDLFDIEDGIIYTQDFTVPGQVLEEEVGQNGQSHSLPKAVCVNGTEPQLSSKVKPEGRPGTANPARKVCSSNKIRRLSAC
# notes: Constructs expressing the full length wild type and kinase dead mouse LKB1 have been described previously; made in house; host or cells: 293 cells, co-transfected
# B2: LKB1:STRAD:MO25 complex (Example 4, FIG. 26A) (enzyme, part only; not given: STRAD and MO25 subunits, GST)
# chain: MDVADPEPLGLFSEGELMSVGMDTFIHRIDSTEVIYQPRRKRAKLIGKYLMGDLLGEGSYGKVKEVLDSETLCRRAVKILKKKKLRRIPNGEANVKKEIQLLRRLRHRNVIQLVDVLYNEEKQKMYMVMEYCVCGMQEMLDSVPEKRFPVCQAHGYFRQLIDGLEYLHSQGIVHKDIKPGNLLLTTNGTLKISDLGVAEALHPFAVDDTCRTSQGSPAFQPPEIANGLDTFSGFKVDIWSAGVTLYNITTGLYPFEGDNIYKLFENIGRGDFTIPCDCGPPLSDLLRGMLEYEPAKRFSIRQIRQHSWFRKKHPLAEALVPIPPSPDTKDRWRSMTVVPYLEDLHGRAEEEEEEDLFDIEDGIIYTQDFTVPGQVLEEEVGQNGQSHSLPKAVCVNGTEPQLSSKVKPEGRPGTANPARKVCSSNKIRRLSACKQQ
# B3: STRADα-C12 peptide (Biotin-C6spacer-NLEELEVDDWEF) (peptide)
# peptide: {Biotin-C6spacer}-NLEELEVDDWEF
# notes: also called WEF-C12; C-terminal 12 residues of STRADα
# Assays:
# [1] = substrate: CC(C)C[C@H](NC(=O)[C@H](CC(N)=O)NC(=O)[C@H](CO)NC(=O)[C@@H](N)CC(C)C)C(=O)N[C@@H](Cc1ccc(O)cc1)C(=O)N[C@@H](Cc1c[nH]cn1)C(=O)N[C@@H](CCC(N)=O)C(=O)NCC(=O)N[C@@H](CCCCN)C(=O)N[C@@H](Cc1ccccc1)C(=O)N[C@@H](CC(C)C)C(=O)N[C@@H](CCC(N)=O)C(=O)N[C@H](C(=O)N[C@@H](Cc1ccccc1)C(=O)N[C@@H](CS)C(=O)NCC(=O)N[C@@H](CO)C(=O)N1CCC[C@H]1C(=O)N[C@@H](CC(C)C)C(=O)N[C@@H](Cc1ccc(O)cc1)C(=O)N[C@@H](CCCNC(=N)N)C(=O)N[C@@H](CCCNC(=N)N)C(=O)N[C@@H](CCCNC(=N)N)C(=O)O)[C@@H](C)O; assay: Kinetic analysis of phosphorylation of T-loop peptides by the LKB1:STRAD:MO25 complex (Example 4); assay type: biochemical; settings: other: phosphorylation by LKB1 complex, nonlinear regression; pH 7.5; 30.0 °C
# Experimental: FIG. 26. Identification of peptide substrates for LKB1. (A) Kinetic analysis of the phosphorylation of the indicated T-loop by the LKB1:STRAD:MO25 complex was performed. The T-loop Thr residue in each peptide is underlined and in boldface type and 3 Arg residues were added to the C-terminus of each T-loop peptide to enable their capture on phosphocellulose p81 paper. Km and Vmax values were determined from nonlinear regression. (B) An aliquot of each peptide phosphorylated by LKB1 complex was subjected to solid phase Edman sequencing and ^32P-radioactivity was measured after each cycle of Edman degradation. […] The results are expressed as the peptide kinase activity generated per mg of LKB1:STRAD:MO25 added to the assay. […]
# Measurement of activation of AMPK-related kinases AMPKα1 catalytic subunit and AMPK-related kinases was measured following their phosphorylation with LKB1 as follows. […] After incubation at 30° C. for the times indicated in the figure legend, AMPKα1 catalytic domain or AMPK-related kinase activities were determined by adding 30 μl of 5 mM magnesium acetate, 0.1 mM [γ-^32P]-ATP (300 cpm/pmol) and 200 μM AMARA peptide (AMARAASAAALARRR (Dale et al., 1995)) as substrate. […] Kinetic data was analysed according to the Michaelis-Menten relationship by non-linear regression using the computer program GraphPad Prism (GraphPad Software Inc, San Diego, USA). […]
# [2] = tested on: T1, SIK FGNFYKSGEPLSTWCGSPPYRRR; assay: kinetic analysis of peptide phosphorylation by the LKB1:STRAD:MO25 complex, nonlinear regression
# [3] = tested on: T2, BRSK2 MASLQVGDSLLETSCGSPHYRRR; assay: as above
# [4] = tested on: T3, MARK3 FSNEFTVGGKLDTFCGSPPYRRR; assay: as above
# [5] = tested on: T4, MELK AKPKGNKDYHLQTCCGSLAYRRR; assay: as above
# [6] = tested on: peptide derived from the T-loop of AMPKα1 (Example 4, FIG. 26A)
# [7] = tested on: T1, SIK FGNFYKSGEPLSTWCGSPPYRRR
# [8] = tested on: T5, LKBtide peptide (NUAK2 T-loop peptide)
# [9] = tested on: T2, BRSK2 MASLQVGDSLLETSCGSPHYRRR
# [10] = tested on: T3, MARK3 FSNEFTVGGKLDTFCGSPPYRRR
# [11] = tested on: T4, MELK AKPKGNKDYHLQTCCGSLAYRRR
# [12] = target: T6, bacterially expressed MO25α; assay: SPR (BiaCore 3000), biotinylated STRADα-C12 peptide on streptavidin chip, MO25α 6.25-3200 nM, steady-state fit
# Experimental: 5 μg of the total cell lysates prior to affinity purification were also subjected to immunoblotting with anti-Myc antibody to ensure that Myc-MO25α was expressed at similar levels in each condition (lower panel). (B) 0.5 mg of the indicated cell lysates was incubated with 5 μg of an N-terminal biotinylated peptide encompassing either the C-terminal 12 residues STRADα conjugated to streptavidin-Sepharose ([…], termed STRADα-C12) or mutants of this peptide in which the indicated residues were individually mutated to Ala. Following isolation and washing of the beads, the samples were subjected to SDS-polyacrylamide gel electrophoresis and immunoblotted with an anti-MO25α antibody. (C) Binding of bacterially expressed MO25α to the indicated peptides was analysed by surface plasmon resonance BiaCore analysis as described in Materials and Methods. […] WEF-C12 corresponds to […], WEA-C12 corresponds to […], AEF-C12 corresponds to […], WAF-C12 corresponds to […], WEF-C6 corresponds to VDDWEF.
# Biacore analysis. Binding was analysed in a BiaCore 3000 system (BiaCore AB, Stevenage, UK). The indicated biotinylated peptides were bound to a streptavidin-coated Sensor chip (SA) (20 response units, RU). […] Dissociation of MO25α from each peptide was monitored over a 1 min period. […]
binder,measurement,setting,value
B1,Km,[1],150 µM
B2,Km,[2],460 µM
same,Km,[3],400 µM
same,Km,[4],620 µM
same,Km,[5],> 3000 µM
same,Km (phosphorylation of the T-loop peptide),[6],"(Km, 1.4 mM)"
same,Vmax of phosphorylation of the AMPK T-loop peptide by the complex,[6],94.1 U/mg
same,"Vmax/Km for the AMPK T-loop peptide (Vmax in U/mg, Km in mM)",[6],67
same,Vmax of phosphorylation of the SIK T-loop peptide by the complex,[7],63.9 U/mg
same,"Vmax/Km for the SIK T-loop peptide (Vmax in U/mg, Km in mM)",[7],139
same,Vmax of phosphorylation of the NUAK2 T-loop peptide by the complex,[8],86.8 U/mg
same,"Vmax/Km for the NUAK2 T-loop peptide (Vmax in U/mg, Km in mM)",[8],578
same,Vmax of phosphorylation of the BRSK2 T-loop peptide by the complex,[9],10.6 U/mg
same,"Vmax/Km for the BRSK2 T-loop peptide (Vmax in U/mg, Km in mM)",[9],26
same,Vmax of phosphorylation of the MARK3 T-loop peptide by the complex,[10],10.2 U/mg
same,"Vmax/Km for the MARK3 T-loop peptide (Vmax in U/mg, Km in mM)",[10],16
same,Vmax of phosphorylation of the MELK T-loop peptide by the complex,[11],> 60 U/mg
B3,Kd,[12],850 nM

# From US20070036793A1, “Methods for use of an lkb1/strad7mo25 complex” (priority 2003, published 2007)
